In patent US20250171536A1 (CSL INNOVATION, published 2025):

T1: Murine CD117, soluble (MuCD117 1-527) (mouse, UniProt P05532 25-527)
T1 construct: Residues as printed
T1 sequence: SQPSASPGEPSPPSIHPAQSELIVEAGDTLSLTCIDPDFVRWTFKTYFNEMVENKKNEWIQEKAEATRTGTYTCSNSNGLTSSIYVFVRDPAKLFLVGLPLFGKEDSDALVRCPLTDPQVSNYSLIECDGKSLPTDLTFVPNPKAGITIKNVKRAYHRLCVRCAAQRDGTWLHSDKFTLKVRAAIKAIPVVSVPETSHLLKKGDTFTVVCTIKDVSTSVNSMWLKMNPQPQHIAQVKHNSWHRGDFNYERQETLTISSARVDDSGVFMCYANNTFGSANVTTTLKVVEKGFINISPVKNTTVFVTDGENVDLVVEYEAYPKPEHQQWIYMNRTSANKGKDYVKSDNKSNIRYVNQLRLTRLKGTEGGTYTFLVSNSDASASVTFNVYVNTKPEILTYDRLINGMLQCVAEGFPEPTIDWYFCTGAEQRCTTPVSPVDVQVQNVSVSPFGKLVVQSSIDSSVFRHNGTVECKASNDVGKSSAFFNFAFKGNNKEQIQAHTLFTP

T2: Cyno CD117, soluble (cynoCD117 1-520) (cynomolgus monkey, UniProt P10721 26-520 (human entry))
T2 construct: Residues as printed
T2 chain: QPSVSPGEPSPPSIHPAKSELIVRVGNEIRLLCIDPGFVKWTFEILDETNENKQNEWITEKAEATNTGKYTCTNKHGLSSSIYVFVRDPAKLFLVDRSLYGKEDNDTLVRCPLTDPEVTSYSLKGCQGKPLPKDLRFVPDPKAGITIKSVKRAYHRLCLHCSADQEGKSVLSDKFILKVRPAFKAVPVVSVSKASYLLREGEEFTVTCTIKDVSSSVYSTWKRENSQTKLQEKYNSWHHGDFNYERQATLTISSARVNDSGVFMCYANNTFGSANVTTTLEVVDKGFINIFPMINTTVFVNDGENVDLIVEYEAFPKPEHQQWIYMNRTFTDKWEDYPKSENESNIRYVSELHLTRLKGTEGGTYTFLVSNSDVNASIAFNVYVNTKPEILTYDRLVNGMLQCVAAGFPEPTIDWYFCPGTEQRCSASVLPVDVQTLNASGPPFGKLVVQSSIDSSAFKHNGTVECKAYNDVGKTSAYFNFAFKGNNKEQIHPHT

T3: Cynomolgus monkey CD117, expressed on HEK293FS cells (cynomolgus monkey, UniProt P10721 26-976 (human entry))
T3 construct: The construct transfected is not further described; also called cyno CD117
T3 chain: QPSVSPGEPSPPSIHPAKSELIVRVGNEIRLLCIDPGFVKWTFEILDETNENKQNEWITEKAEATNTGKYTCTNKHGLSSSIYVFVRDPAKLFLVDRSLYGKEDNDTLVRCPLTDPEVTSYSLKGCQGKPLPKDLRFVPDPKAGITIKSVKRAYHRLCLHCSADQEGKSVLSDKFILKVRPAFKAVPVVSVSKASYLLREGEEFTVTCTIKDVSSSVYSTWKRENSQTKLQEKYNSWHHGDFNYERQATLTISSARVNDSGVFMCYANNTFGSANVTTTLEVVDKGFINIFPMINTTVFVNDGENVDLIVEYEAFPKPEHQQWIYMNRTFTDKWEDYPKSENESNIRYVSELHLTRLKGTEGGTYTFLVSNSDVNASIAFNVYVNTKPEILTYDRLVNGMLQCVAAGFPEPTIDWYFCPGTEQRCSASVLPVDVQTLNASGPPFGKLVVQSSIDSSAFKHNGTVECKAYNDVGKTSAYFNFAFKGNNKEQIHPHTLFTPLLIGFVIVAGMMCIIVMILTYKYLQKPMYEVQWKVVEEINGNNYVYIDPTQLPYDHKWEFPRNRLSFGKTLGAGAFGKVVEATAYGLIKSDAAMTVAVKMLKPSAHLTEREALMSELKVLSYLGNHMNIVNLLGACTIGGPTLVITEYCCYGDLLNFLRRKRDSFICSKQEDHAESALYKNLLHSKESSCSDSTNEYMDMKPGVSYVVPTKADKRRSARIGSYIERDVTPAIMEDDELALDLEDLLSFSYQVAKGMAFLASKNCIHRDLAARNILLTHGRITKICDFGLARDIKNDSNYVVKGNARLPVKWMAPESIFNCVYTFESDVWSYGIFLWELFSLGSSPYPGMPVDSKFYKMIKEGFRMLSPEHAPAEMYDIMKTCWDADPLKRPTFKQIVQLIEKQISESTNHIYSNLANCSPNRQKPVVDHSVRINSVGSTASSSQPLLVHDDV


Columns and labels:
[1] = biological target: T1, Murine CD117, soluble (MuCD117 1-527); assay: SPR Biacore 4000, captured antibody, soluble CD117 analyte
Description: (§1) Biacore 4000 was used for all binding analyses. Experiments were performed at pH 7.3, 37° C. and under flow rate of 30 μL/min. Human anti-CD117 antibodies were surface captured using either polyclonal goat anti-human IgG or IgA antibodies directly immobilised onto the carboxymethyl dextran surface of CM5 sensorchips to approximately 13,000 RU using standard NHS/EDC chemistry at pH 5. The immobilised antibody surface was pre-conditioned with ten injections of human polyclonal IgG (Privigen 60s, 10 μg/mL) each followed by a regeneration cycle with 100 mM H3PO4.
(§2) A total of 18 anti-CD117 antibodies (2 μg/mL) were tested as captured ligands against four soluble mammalian CD117 receptor variants: the N-terminal domain of human CD117 (HuCD1₁₇₁₋₃₀₈), full length human CD117 (HuCD1₁₇₁₋₅₂₄), cyno CD117 (cynoCD117₁₋₅₂₀), and murine CD117 (MuCD117₁₋₅₂₇).
(§3) CD117 proteins were prepared in two-fold dilutions ranging from 0.8 to 200 nM. Anti-CD117 antibodies huAb249, huAb85, huCK6 and huhzSR1 were used as positive controls. BM4 was prepared in an IgG and IgA2 format and used as negative control. Binding affinities were calculated from sensorgrams double-referenced using reference surface and blank buffer injection data gathered within each experiment.

[2] = biological target: T4, Full length human CD117, soluble (HuCD117 1-524) (human, UniProt P10721 26-524); assay: SPR Biacore 4000, captured antibody, soluble CD117 analyte, 1:1 fit;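 further: antibodies captured on CM5 chips via goat anti-human IgG or IgA, CD117 analyte in two-fold series 0.8–200 nM, run at pH 7.3 and 37 °C, double-referenced sensorgrams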
T4 construct: also called full-length protein
Description: as §1, §2, §3

[3] = biological target: T2, Cyno CD117, soluble (cynoCD117 1-520); assay: as above
Description: as §1, §2, §3

[4] = biological target: T5, Mouse CD117, expressed on HEK293FS cells (mouse, UniProt P05532 25-979); assay: flow cytometry on HEK293FS cells expressing mouse CD117, IgG1 format, signal of parental cells subtracted
T5 construct: The construct transfected is not further described; also called murine CD117
Description: (§4) After a one hour incubation on ice, cells were washed once prior to fixation.
(§5) Mean fluorescence intensities (MFI) were obtained using Flowjo v10 and analysed using GraphPad Prism. Total binding curves for TF-1 cells and specific binding curves for HEK293FS expressing CD117 (generated by subtracting non-specific binding to parental cells) were plotted. EC50 values for each anti-CD117-IgG1 antibody tested was determined using a non-linear regression model.

[5] = biological target: T1, Murine CD117, soluble (MuCD117 1-527); assay: SPR, captured antibody, soluble CD117 analyte
Description: as §1, §2, §3

[6] = biological target: N-terminal domain of human CD117, soluble (HuCD117 1-308) (human, UniProt P10721 26-308); assay: SPR Biacore 4000, captured antibody, soluble CD117 analyte, 1:1 fit;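 further: antibodies captured on CM5 chips via goat anti-human IgG or IgA, CD117 analyte in two-fold series 0.8–200 nM, run at pH 7.3 and 37 °C, double-referenced sensorgrams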
Description: as §1, §2, §3

[7] = biological target: T6, Human CD117 (c-kit), cell-surface expressed (human, UniProt P10721 26-976); assay: flow cytometry on TF-1 cells, IgG1 format, anti-human IgG Fab-AF488, total binding
T6 construct: also called hCD117; SCFR
Description: as §4, §5

[8] = biological target: T3, Cynomolgus monkey CD117, expressed on …; assay: flow cytometry on HEK293FS cells expressing cynomolgus CD117, IgG1 format, signal of parental cells subtracted [F]
Description: as §4, §5

[9] = biological target: T6, Human CD117 (c-kit), cell-surface …; assay: flow cytometry on HEK293FS cells expressing human CD117, IgG1 format, signal of parental cells subtracted
Description: as §4, §5

[10] = biological target: T3, Cynomolgus monkey CD117, expressed on …; assay: flow cytometry on HEK293FS cells expressing cynomolgus CD117, IgG1 format, signal of parental cells subtracted
Description: as §4, §5

[11] = biological target: T4, Full length human CD117, soluble …; assay: SPR Biacore 4000, captured antibody, soluble CD117 analyte
Description: as §1, §2, §3

[12] = biological target: T2, Cyno CD117, soluble (cynoCD117 1-520); assay: as above
Description: as §1, §2, §3

T4 sequence (P10721 26-524): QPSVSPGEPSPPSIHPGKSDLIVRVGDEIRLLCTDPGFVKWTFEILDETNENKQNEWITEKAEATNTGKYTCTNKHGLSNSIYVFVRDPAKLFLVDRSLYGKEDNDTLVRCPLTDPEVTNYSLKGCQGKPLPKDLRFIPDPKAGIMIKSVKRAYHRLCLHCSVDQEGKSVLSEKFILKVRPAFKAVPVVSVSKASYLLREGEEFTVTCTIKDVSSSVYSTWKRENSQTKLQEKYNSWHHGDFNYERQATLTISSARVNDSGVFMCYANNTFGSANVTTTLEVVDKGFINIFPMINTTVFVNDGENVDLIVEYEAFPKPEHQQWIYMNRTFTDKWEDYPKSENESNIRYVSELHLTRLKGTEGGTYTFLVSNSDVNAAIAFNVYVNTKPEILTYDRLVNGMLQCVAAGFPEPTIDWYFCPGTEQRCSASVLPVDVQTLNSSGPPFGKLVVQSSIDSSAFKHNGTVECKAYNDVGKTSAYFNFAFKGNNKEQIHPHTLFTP
N-terminal domain of human CD117, soluble (HuCD117 1-308), sequence (P10721 26-308): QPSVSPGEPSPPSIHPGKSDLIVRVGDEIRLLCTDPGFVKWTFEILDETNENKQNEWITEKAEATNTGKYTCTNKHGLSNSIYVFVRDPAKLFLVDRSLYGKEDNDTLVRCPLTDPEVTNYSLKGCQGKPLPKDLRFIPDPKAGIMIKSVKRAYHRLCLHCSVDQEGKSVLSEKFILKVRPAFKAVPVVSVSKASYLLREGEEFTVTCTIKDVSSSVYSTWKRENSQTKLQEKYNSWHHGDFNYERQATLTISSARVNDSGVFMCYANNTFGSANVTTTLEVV

Kd [1]	Kd [2]	Kd [3]	EC50 (read off the curve) [4]	Kd [6]	EC50 (read off the curve) [7]	binding result [8]	EC50 (read off the curve) [9]	EC50 (read off the curve) [10]	fold gain in affinity (IgA2 backbone vs IgG1 or IgG4) [11]	fold gain in affinity (IgA2 backbone vs IgG1 or IgG4) [12]	Binder	binding result [5]
> 1000 nM	54.6 nM	58.7 nM	~0.3 nM								hu3B2 IgG1 (hu3B2-hLG1) (antibody, Human IgG1, lambda) heavy: not shown light: SYELTQPPSVSVSPGQTATITCSGDKLGETYVHWYQHQSGQSPILVVYQDFKRPSGIPERFSGSNSGNTATLTISGTQAMDEADYYCQAWDSSTAVFGGGTKLTVLGQPKAAPSVTLFPPSSEELQANKATLVCLISDFYPGAVTVAWKADGSPVKAGVETTKPSKQSNNKYAASSYLSLTPEQWKSHRSYSCQVTHEGSTVEKTVAPTECS	
> 1000 nM	35.9 nM	39.9 nM									hu3B2 IgA2 (hu3B2-hLhA2 (P221R)) (antibody) heavy: QVQLQESGPGLVKPSETLSLTCTVSGYSISSGYYWGWIRQPPGKGLEWIGSIYHSGSTYYNPSLKSRVTISVDTSKNQFSLKLSSVTAADTAVYYCARVGVRYFDWLLYGAFDIWGQGTMVTVSSASPTSPKVFPLSLDSTPQDGNVVVACLVQGFFPQEPLSVTWSESGQNVTARNFPPSQDASGDLYTTSSQLTLPATQCPDGKSVTCHVKHYTNSSQDVTVPCRVPPPPPCCHPRLSLHRPALEDLLLGSEANLTCTLTGLRDASGATFTWTPSSGKSAVQGPPERDLCGCYSVSSVLPGCAQPWNHGETFTCTAAHPELKTPLTANITKSGNTFRPEVHLLPPPSEELALNELVTLTCLARGFSPKDVLVRWLQGSQELPREKYLTWASRQEPSQGTTTFAVTSILRVAAEDWKKGDTFSCMVGHEALPLAFTQKTIDRLAGKPTHVNVSVVMAEVDGTCY light: SYELTQPPSVSVSPGQTATITCSGDKLGETYVHWYQHQSGQSPILVVYQDFKRPSGIPERFSGSNSGNTATLTISGTQAMDEADYYCQAWDSSTAVFGGGTKLTVLGQPKAAPSVTLFPPSSEELQANKATLVCLISDFYPGAVTVAWKADGSPVKAGVETTKPSKQSNNKYAASSYLSLTPEQWKSHRSYSCQVTHEGSTVEKTVAPTECS	
	4.2 nM	5.7 nM		1.07 nM	~0.04 nM	binds					hu3B3 IgG1 (hu3B3-hLG1) (antibody, Human IgG1, lambda) heavy: not shown light: SYELTQPPSVSVSPGQTASITCSGDKVGAKYVFWYQQKPGQSPVLVVYQDNKRPSGIPERFSGSNSGNTATLTISGTQAMDEADYYCQAWDSSTALYVFGTGTKVTVLGQPKANPTVTLFPPSSEELQANKATLVCLISDFYPGAVTVAWKADGSPVKAGVETTKPSKQSNNKYAASSYLSLTPEQWKSHRSYSCQVTHEGSTVEKTVAPTECS	no binding (tested: 200 nM (highest CD117 concentration))
	14.4 nM	33.7 nM		4.14 nM	~0.2 nM		~0.4 nM	~0.3 nM			hu3C2 IgG1 (hu3C2-hLG1) (antibody, Human IgG1, lambda) heavy: not shown light: SYELTQDPAVSVALGQTVRITCQGDSLRDYYANWFQQKPGQAPLLVIFYDSDRPSGIPERFSGSNSGNTATLTISRVEAGDEADYYCQAWDSSSDHWVFGGGTKLTVLGQPKAAPSVTLFPPSSEELQANKATLVCLISDFYPGAVTVAWKADGSPVKAGVETTKPSKQSNNKYAASSYLSLTPEQWKSHRSYSCQVTHEGSTVEKTVAPTECS	no binding (tested: 200 nM (highest CD117 concentration))

Continued, binder first:

Binder	Kd [1]	Kd [2]	Kd [3]	EC50 (read off the curve) [4]	Kd [6]	EC50 (read off the curve) [7]	binding result [8]	EC50 (read off the curve) [9]	EC50 (read off the curve) [10]	fold gain in affinity (IgA2 backbone vs IgG1 or IgG4) [11]	fold gain in affinity (IgA2 backbone vs IgG1 or IgG4) [12]	binding result [5]
hu4A2 IgG1 (hu4A2-hKG1) (antibody, Human IgG1, kappa; also called hu4Aa) heavy: not shown light: EIVLTQSPGTLSLSPGKRATLSCRASQSVSNSYLAWYQQKPGQPPKLLIYWASTRESGVPDRFSGSGSGTDFTLTISSLQAEDVAVYYCQQYYSTPLTFGGGTKVEIKRTVAAPSVFIFPPSDEQLKSGTASVVCLLNNFYPREAKVQWKVDNALQSGNSQESVTEQDSKDSTYSLSSTLTLSKADYEKHKVYACEVTHQGLSSPVTKSFNRGEC		32.4 nM	34.6 nM		14.4 nM	~0.2 nM		~0.5 nM	~0.3 nM			
hu4A2 IgA2 (hu4A2-hKhA2 (P221R)) (antibody) heavy: EVQLLESGGGLVQPGGSLRLSCAASGFTFSDYGMSWVRQAPGKGLEWVSAIGYGGGGKYYADSVKGRFTISRDNSKNTLYLQMNSLRAEDTAVYYCAKDTWWLAGLFDYWGQGTLVTVSSASPTSPKVFPLSLDSTPQDGNVVVACLVQGFFPQEPLSVTWSESGQNVTARNFPPSQDASGDLYTTSSQLTLPATQCPDGKSVTCHVKHYTNSSQDVTVPCRVPPPPPCCHPRLSLHRPALEDLLLGSEANLTCTLTGLRDASGATFTWTPSSGKSAVQGPPERDLCGCYSVSSVLPGCAQPWNHGETFTCTAAHPELKTPLTANITKSGNTFRPEVHLLPPPSEELALNELVTLTCLARGFSPKDVLVRWLQGSQELPREKYLTWASRQEPSQGTTTFAVTSILRVAAEDWKKGDTFSCMVGHEALPLAFTQKTIDRLAGKPTHVNVSVVMAEVDGTCY light: EIVLTQSPGTLSLSPGKRATLSCRASQSVSNSYLAWYQQKPGQPPKLLIYWASTRESGVPDRFSGSGSGTDFTLTISSLQAEDVAVYYCQQYYSTPLTFGGGTKVEIKRTVAAPSVFIFPPSDEQLKSGTASVVCLLNNFYPREAKVQWKVDNALQSGNSQESVTEQDSKDSTYSLSSTLTLSKADYEKHKVYACEVTHQGLSSPVTKSFNRGEC		18.6 nM	3 nM		8.61 nM					~2 fold	~10 fold	
